From US20110300138A1 (published 2011)

Assays:
Assay in all cases: cell-based or functional assay
[1] = target: TSHR with Ile60 mutated to Ala, expressed in CHO cells (human) (UniProt P16473)
[2] = target: TSHR with Phe130 mutated to Ala, expressed in CHO cells (human) (UniProt P16473)
[3] = target: TSHR with Ser281 mutated to Ala, expressed in CHO cells (human) (UniProt P16473)
[4] = target: TSHR with Thr257 mutated to Ala (human) (UniProt P16473)
[5] = target: TSHR with Tyr185 mutated to Ala, expressed in CHO cells (human) (UniProt P16473)
[6] = target: TSHR with Tyr82 mutated to Ala expressed in CHO cells (human) (UniProt P16473)

Substance: TSH (ligand)
- Mutated/wild type (%) of cyclic AMP produced; TSH 3 ng/mL; Experiment 1 [1]: 57%
- Mutated/wild type (%) of cyclic AMP produced; TSH 3 ng/mL; Experiment 2 [1]: 81%
- Mutated/wild type (%) of cyclic AMP produced; TSH (2) 3 ng/mL, run at the end of assay; Experiment 1 [1]: 54%
- Mutated/wild type (%) of cyclic AMP produced; TSH (2) 3 ng/mL, run at the end of assay; Experiment 2 [1]: 69%
- Cyclic AMP produced, TSH 0.01 ng/mL, mutated TSHR [2]: 3.05 pmol/mL
- Cyclic AMP produced, TSH 0.03 ng/mL, mutated TSHR [2]: 4.12 pmol/mL
- Cyclic AMP produced, TSH 0.1 ng/mL, mutated TSHR [2]: 9.61 pmol/mL
- Cyclic AMP produced, TSH 0.3 ng/mL, mutated TSHR [2]: 35.6 pmol/mL
- Cyclic AMP produced, TSH 1 ng/mL, mutated TSHR [2]: 66.2 pmol/mL
- Cyclic AMP produced, TSH 3 ng/mL, mutated TSHR [2]: 80.4 pmol/mL
- Mutated/Wild type (%), TSH 0.01 ng/mL [2]: 134%
- Mutated/Wild type (%), TSH 0.03 ng/mL [2]: 109%
- Mutated/Wild type (%), TSH 0.1 ng/mL [2]: 101%
- Mutated/Wild type (%), TSH 0.3 ng/mL [2]: 124%
- Mutated/Wild type (%), TSH 1 ng/mL [2]: 86%
- Mutated/Wild type (%), TSH 3 ng/mL [2]: 86%
- % inhibition of TSH stimulation; TSH (2) (run at the end of assay, against the first TSH sample); Experiment 1 [3]: 19%
- % inhibition of TSH stimulation; TSH (2) (run at the end of assay, against the first TSH sample); Experiment 2 [3]: 4%
- Cyclic AMP produced (pmol/mL), TSH 0.01 ng/mL, mutated TSHR [3]: 2.84 pmol/mL
- Cyclic AMP produced (pmol/mL), TSH 0.03 ng/mL, mutated TSHR [3]: 4.69 pmol/mL
- Cyclic AMP produced (pmol/mL), TSH 0.1 ng/mL, mutated TSHR [3]: 11.3 pmol/mL
- Cyclic AMP produced (pmol/mL), TSH 0.3 ng/mL, mutated TSHR [3]: 27.5 pmol/mL
- Cyclic AMP produced (pmol/mL), TSH 1 ng/mL, mutated TSHR [3]: 51.6 pmol/mL
- Cyclic AMP produced (pmol/mL), TSH 3 ng/mL, mutated TSHR [3]: 68 pmol/mL
- Mutated/Wild type (%), TSH 0.01 ng/mL [3]: 140%
- Mutated/Wild type (%), TSH 0.03 ng/mL [3]: 128%
- Mutated/Wild type (%), TSH 0.1 ng/mL [3]: 117%
- Mutated/Wild type (%), TSH 0.3 ng/mL [3]: 88%
- Mutated/Wild type (%), TSH 1 ng/mL [3]: 85%
- Mutated/Wild type (%), TSH 3 ng/mL [3]: 82%
- Mutated/wild type (%) of cyclic AMP produced; test sample TSH (3 ng/mL); Experiment 1 [3]: 79%
- Mutated/wild type (%) of cyclic AMP produced; test sample TSH (3 ng/mL); Experiment 2 [3]: 92%
- Mutated/wild type (%) of cyclic AMP produced; test sample TSH (2) (3 ng/mL, run at the end of assay); Experiment 1 [3]: 57%
- Mutated/wild type (%) of cyclic AMP produced; test sample TSH (2) (3 ng/mL, run at the end of assay); Experiment 2 [3]: 79%
- Mutated/Wild type (%) of cyclic AMP produced, TSH 0.01 ng/mL [4]: 90%
- Mutated/Wild type (%) of cyclic AMP produced, TSH 0.03 ng/mL [4]: 93%
- Mutated/Wild type (%) of cyclic AMP produced, TSH 0.1 ng/mL [4]: 92%
- Mutated/Wild type (%) of cyclic AMP produced, TSH 0.3 ng/mL [4]: 105%
- Mutated/Wild type (%) of cyclic AMP produced, TSH 1 ng/mL [4]: 94%
- Mutated/wild type (%) of cyclic AMP produced; TSH 3 ng/mL [4]: 86%
- Cyclic AMP produced (pmol/mL), mutated TSHR, TSH 0.01 ng/mL, Experiment 1 [5]: 3.33 pmol/mL
- Cyclic AMP produced (pmol/mL), mutated TSHR, TSH 0.01 ng/mL, Experiment 2 [5]: 3.82 pmol/mL
- Cyclic AMP produced (pmol/mL), mutated TSHR, TSH 0.03 ng/mL, Experiment 1 [5]: 3.85 pmol/mL
- Cyclic AMP produced (pmol/mL), mutated TSHR, TSH 0.03 ng/mL, Experiment 2 [5]: 5.6 pmol/mL
- Cyclic AMP produced (pmol/mL), mutated TSHR, TSH 0.1 ng/mL, Experiment 1 [5]: 8.36 pmol/mL
- Cyclic AMP produced (pmol/mL), mutated TSHR, TSH 0.1 ng/mL, Experiment 2 [5]: 12.3 pmol/mL
- Cyclic AMP produced (pmol/mL), mutated TSHR, TSH 0.3 ng/mL, Experiment 1 [5]: 21.1 pmol/mL
- Cyclic AMP produced (pmol/mL), mutated TSHR, TSH 0.3 ng/mL, Experiment 2 [5]: 30.5 pmol/mL
- Cyclic AMP produced (pmol/mL), mutated TSHR, TSH 1 ng/mL, Experiment 1 [5]: 37.8 pmol/mL
- Cyclic AMP produced (pmol/mL), mutated TSHR, TSH 1 ng/mL, Experiment 2 [5]: 50.6 pmol/mL
- Cyclic AMP produced (pmol/mL), mutated TSHR, TSH 3 ng/mL, Experiment 1 [5]: 42.9 pmol/mL
- Cyclic AMP produced (pmol/mL), mutated TSHR, TSH 3 ng/mL, Experiment 2 [5]: 56.3 pmol/mL
- Mutated/Wild type (%), TSH 0.01 ng/mL, Experiment 1 [5]: 128%
- Mutated/Wild type (%), TSH 0.01 ng/mL, Experiment 2 [5]: 98%
- Mutated/Wild type (%), TSH 0.03 ng/mL, Experiment 1 [5]: 90%
- Mutated/Wild type (%), TSH 0.03 ng/mL, Experiment 2 [5]: 101%
- Mutated/Wild type (%), TSH 0.1 ng/mL, Experiment 1 [5]: 76%
- Mutated/Wild type (%), TSH 0.1 ng/mL, Experiment 2 [5]: 93%
- Mutated/Wild type (%), TSH 0.3 ng/mL, Experiment 1 [5]: 65%
- Mutated/Wild type (%), TSH 0.3 ng/mL, Experiment 2 [5]: 86%
- Mutated/Wild type (%), TSH 1 ng/mL, Experiment 1 [5]: 45%
- Mutated/Wild type (%), TSH 1 ng/mL, Experiment 2 [5]: 62%
- Mutated/Wild type (%), TSH 3 ng/mL, Experiment 1 [5]: 35%
- % inhibition of TSH stimulation; TSH (2); Experiment 1 [6]: 44%
- % inhibition of TSH stimulation; TSH (2); Experiment 2 [6]: 22%
- Cyclic AMP produced; TSH 3 ng/mL; Experiment 1 [6]: 166 pmol/mL
- Cyclic AMP produced; TSH 3 ng/mL; Experiment 2 [6]: 74.6 pmol/mL
- Cyclic AMP produced; TSH (2); Experiment 1 [6]: 92.3 pmol/mL
- Cyclic AMP produced; TSH (2); Experiment 2 [6]: 57.9 pmol/mL
- Mutated/wild type (%) of cyclic AMP produced; TSH 3 ng/mL; Experiment 1 [6]: 108%
- Mutated/wild type (%) of cyclic AMP produced; TSH 3 ng/mL; Experiment 2 [6]: 125%
- Mutated/wild type (%) of cyclic AMP produced; TSH (2); Experiment 1 [6]: 58%
- Mutated/wild type (%) of cyclic AMP produced; TSH (2); Experiment 2 [6]: 94%
